Three substances from US20220411487A1 can be followed below.

Assay [1] addresses catalytically inactive full length human TMPRSS6 on HEK293 cells (HEK293/hTMPRSS6 (S762A)) (human) (UniProt Q8IU80). Briefly: flow cytometry, HEK293 cells expressing target, secondary alone. (In general: Flow cytometry measures light scatter and fluorescence of single cells or particles in a stream.)
Assay [2] has as its target full length cynomolgous monkey TMPRSS6 on HEK293 cells (HEK293/mfTMPRSS6) (cynomolgous monkey/Macaca fascicularis). Described as above.
For assay [3], the target named is full length human TMPRSS6 on HEK293 cells (HEK293/hTMPRSS6) (human) (UniProt Q8IU80). The description is as above.
full length human TMPRSS6 on HEK293 cells (HEK293/hTMPRSS6) (human), sequence (Q8IU80 10-811 limits assumed): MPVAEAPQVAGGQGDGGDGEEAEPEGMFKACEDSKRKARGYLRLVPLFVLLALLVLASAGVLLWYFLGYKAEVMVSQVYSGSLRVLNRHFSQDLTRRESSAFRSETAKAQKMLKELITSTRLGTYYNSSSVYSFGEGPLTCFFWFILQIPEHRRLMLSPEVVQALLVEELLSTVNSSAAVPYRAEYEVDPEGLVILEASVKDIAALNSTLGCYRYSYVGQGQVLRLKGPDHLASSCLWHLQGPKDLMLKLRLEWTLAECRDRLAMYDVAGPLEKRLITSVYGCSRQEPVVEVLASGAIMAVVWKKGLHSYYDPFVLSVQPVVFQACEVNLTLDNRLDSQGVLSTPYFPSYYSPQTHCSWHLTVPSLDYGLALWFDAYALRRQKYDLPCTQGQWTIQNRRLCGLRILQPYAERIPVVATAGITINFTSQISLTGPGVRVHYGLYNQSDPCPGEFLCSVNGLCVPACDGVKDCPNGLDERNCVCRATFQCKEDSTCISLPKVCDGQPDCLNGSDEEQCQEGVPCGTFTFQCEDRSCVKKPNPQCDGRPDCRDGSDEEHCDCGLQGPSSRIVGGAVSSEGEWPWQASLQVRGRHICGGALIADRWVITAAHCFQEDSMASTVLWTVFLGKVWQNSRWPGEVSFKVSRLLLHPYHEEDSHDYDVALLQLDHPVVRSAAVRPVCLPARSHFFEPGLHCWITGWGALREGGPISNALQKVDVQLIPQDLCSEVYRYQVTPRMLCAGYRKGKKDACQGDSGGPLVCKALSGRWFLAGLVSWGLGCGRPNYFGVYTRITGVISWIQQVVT
Assay [4] has as its target full length mouse TMPRSS6 on HEK293 cells (HEK293/mTMPRSS6) (mouse) (UniProt Q9DBI0). The assay is described as above.
The target in assay [5] is full length human TMPRSS6 with a C-terminal triple myc tag on HEK293.hHJV cells (HEK293.hHJV/3xMyc.hTMPRSS6) (human) (UniProt Q8IU80). The experiment in a line: cell-based or functional assay.
Assay [6] addresses full-length mouse TMPRSS6 with a C-terminal triple myc tag on HEK293.hHJV cells (HEK293.hHJV/3xMyc.mTMPRSS6) (mouse) (UniProt Q9DBI0). The experiment in a line: cell-based or functional assay.
Assay [7] has as its target catalytically inactive full length human TMPRSS6 on HEK293 cells (HEK293/hTMPRSS6 (S762A)) (human) (UniProt Q8IU80). Briefly: flow cytometry, HEK293 cells expressing target.
For assay [8], the target named is full length cynomolgous monkey TMPRSS6 on HEK293 cells (HEK293/mfTMPRSS6) (cynomolgous monkey/Macaca fascicularis). Briefly: flow cytometry, HEK293 cells expressing target.
full length cynomolgous monkey TMPRSS6 on HEK293 cells (HEK293/mfTMPRSS6) (cynomolgous monkey/Macaca fascicularis), sequence (Q8IU80 other isoform, or with tags, fused parts or gaps): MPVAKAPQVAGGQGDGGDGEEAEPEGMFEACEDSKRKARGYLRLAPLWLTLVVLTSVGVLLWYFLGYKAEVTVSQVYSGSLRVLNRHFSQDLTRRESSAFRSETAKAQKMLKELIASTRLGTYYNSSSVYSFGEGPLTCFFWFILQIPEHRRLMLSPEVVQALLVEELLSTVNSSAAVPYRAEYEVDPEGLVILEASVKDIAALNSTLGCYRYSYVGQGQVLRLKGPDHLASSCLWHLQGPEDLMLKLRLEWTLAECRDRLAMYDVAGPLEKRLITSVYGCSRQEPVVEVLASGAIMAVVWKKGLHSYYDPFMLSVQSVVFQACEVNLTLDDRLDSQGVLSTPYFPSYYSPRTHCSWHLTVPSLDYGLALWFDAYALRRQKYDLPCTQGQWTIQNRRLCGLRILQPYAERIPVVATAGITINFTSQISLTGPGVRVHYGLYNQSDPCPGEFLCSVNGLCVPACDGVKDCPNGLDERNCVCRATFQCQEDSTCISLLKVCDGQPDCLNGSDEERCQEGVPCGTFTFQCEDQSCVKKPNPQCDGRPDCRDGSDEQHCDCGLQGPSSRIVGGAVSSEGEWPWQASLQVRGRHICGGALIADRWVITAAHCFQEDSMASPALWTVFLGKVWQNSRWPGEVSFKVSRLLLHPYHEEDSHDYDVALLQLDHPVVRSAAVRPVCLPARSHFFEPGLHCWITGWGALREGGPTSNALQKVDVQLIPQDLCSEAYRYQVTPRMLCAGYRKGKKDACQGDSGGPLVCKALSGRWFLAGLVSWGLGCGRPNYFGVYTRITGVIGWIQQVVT
The target of assay [9] is full length human TMPRSS6 on HEK293 cells (HEK293/hTMPRSS6) (human) (UniProt Q8IU80). Briefly: flow cytometry, HEK293 cells expressing target.
For assay [10], the target named is full length mouse TMPRSS6 on HEK293 cells (HEK293/mTMPRSS6) (mouse) (UniProt Q9DBI0). The experiment in a line: flow cytometry, HEK293 cells expressing target.
full length mouse TMPRSS6 on HEK293 cells (HEK293/mTMPRSS6) (mouse), sequence (Q9DBI0 whole entry): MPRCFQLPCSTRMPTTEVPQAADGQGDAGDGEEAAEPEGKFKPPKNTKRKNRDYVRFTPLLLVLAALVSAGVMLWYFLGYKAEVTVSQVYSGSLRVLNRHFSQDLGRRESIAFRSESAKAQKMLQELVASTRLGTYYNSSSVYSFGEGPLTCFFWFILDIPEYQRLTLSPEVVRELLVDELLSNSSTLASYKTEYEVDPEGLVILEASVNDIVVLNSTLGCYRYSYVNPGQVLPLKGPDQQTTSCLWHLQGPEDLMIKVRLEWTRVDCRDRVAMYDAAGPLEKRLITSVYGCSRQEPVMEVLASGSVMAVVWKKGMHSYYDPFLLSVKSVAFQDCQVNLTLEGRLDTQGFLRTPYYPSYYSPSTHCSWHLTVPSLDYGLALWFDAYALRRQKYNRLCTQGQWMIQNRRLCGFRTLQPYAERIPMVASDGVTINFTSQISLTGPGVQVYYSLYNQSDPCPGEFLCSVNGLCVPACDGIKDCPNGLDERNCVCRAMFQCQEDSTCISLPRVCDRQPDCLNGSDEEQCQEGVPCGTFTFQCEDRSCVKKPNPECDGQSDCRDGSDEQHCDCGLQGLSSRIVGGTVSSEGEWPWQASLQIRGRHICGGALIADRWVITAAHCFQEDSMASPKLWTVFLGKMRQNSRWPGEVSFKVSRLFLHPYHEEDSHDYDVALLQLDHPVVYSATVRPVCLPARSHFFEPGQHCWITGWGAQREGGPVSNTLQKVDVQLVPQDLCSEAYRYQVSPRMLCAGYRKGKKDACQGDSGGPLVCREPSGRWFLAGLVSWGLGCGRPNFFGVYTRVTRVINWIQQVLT

catalytically inactive full length human TMPRSS6 on HEK293 cells (HEK293/hTMPRSS6 (S762A)) (human), sequence (Q8IU80 10-811 S762A): as the sequence (Q8IU80 10-811 limits assumed) above, with S753A counted along it

In the case of “Alexa Fluor-647 conjugated anti-human secondary antibody (Jackson ImmunoResearch #109-607-003)”, the Max. Fold Binding (fold over unstained control) in [1] is 2; in [2], 1; in assay [3] it was 1; in assay [4], 1.
In assay [5], Isotype Control (antibody) gave a Geometric Mean Fluorescence Intensity of cell surface hHJV of 11700, an Inhibition (%) of soluble hHJV release (ELISA) of 15.7% and a Median Fluorescence Intensity of cell surface hHJV of 13000. In [6], the Geometric Mean Fluorescence Intensity of cell surface hHJV was 7750, the Inhibition (%) of soluble hHJV release (ELISA) came out at 5.2% and the Median Fluorescence Intensity of cell surface hHJV was 7230.
hIgG Subclass Control (antibody): the Max. Fold Binding (fold over unstained control) in assay [7] worked out at 3; in [8] it was 1; in [9] it was 1; in assay [10] it was 1.
